Source: patent publication US20150299268A1 (UNIVERSITY OF MARYLAND BALTIMORE, published 2015)

Experiments:
[1] = target: Env of HIV-1 virus Du422.1 (HIV-1); assay: cell-based or functional assay
[2] = target: Env of HIV-1 virus 6545.v4.c1 (HIV-1); assay: cell-based or functional assay
[3] = target: Env of HIV-1 virus 1006_11_C3_1601 (HIV-1); assay: cell-based or functional assay
[4] = target: Env of HIV-1 virus 6535.3 (HIV-1); assay: cell-based or functional assay
[5] = target: Env of HIV-1 virus CAAN5342.A2 (HIV-1); assay: cell-based or functional assay
[6] = target: Env of HIV-1 virus 6540.v4.c1 (HIV-1); assay: cell-based or functional assay
[7] = target: Env of HIV-1 virus SF162.LS (HIV-1); assay: cell-based or functional assay
[8] = target: Env of HIV-1 virus ZM53M.PB12 (HIV-1); assay: cell-based or functional assay
[9] = target: Env of HIV-1 virus Du172.17 (HIV-1); assay: cell-based or functional assay
[10] = target: Env of HIV-1 virus THRO4156.18 (HIV-1); assay: cell-based or functional assay
[11] = target: Env of HIV-1 virus AC10.0.29 (HIV-1); assay: cell-based or functional assay
[12] = target: Env of HIV-1 virus BaL.26 (HIV-1); assay: cell-based or functional assay
[13] = target: Env of HIV-1 virus T250-4 (HIV-1); assay: cell-based or functional assay
[14] = target: Env of HIV-1 virus 3817.v2.c59 (HIV-1); assay: cell-based or functional assay
gp120-VRC01-ScFV = assay: ELISA
gp120-JR4-ScFV = assay: ELISA
gp120-JR48.1-ScFV = assay: ELISA
FLSC R/T = target: T1, FLSC R/T (HIV-1, UniProt P01730 26-208); assay: ELISA
T1 construct: not shown: linker of FLSC not described

BaL-gp120 = target: T2, BaL-gp120 (HIV-1 BaL); assay: ELISA
T2 construct: domain: gp120; also called monomeric gp120; monomeric BaL gp120

gp120-b12-ScFV = assay: ELISA
BaL-gp120-D57AD78A = target: T3, BaL-gp120-D57AD78A (HIV-1 BaL); assay: capture ELISA
T3 construct: domain: gp120

BaL-gp120-G495A = target: T4, BaL-gp120-G495A (HIV-1 BaL); assay: capture ELISA
T4 construct: domain: gp120

BaL-gp120-W35A = target: T5, BaL-gp120-W35A (HIV-1 BaL); assay: capture ELISA
T5 construct: domain: gp120

BaL-gp120-E106AD107A = target: T6, BaL-gp120-E106AD107A (HIV-1 BaL); assay: capture ELISA
T6 construct: domain: gp120

BaL-gp120-V496A = target: T7, BaL-gp120-V496A (HIV-1 BaL); assay: capture ELISA
T7 construct: domain: gp120

BaL-gp120-K500A = target: T8, BaL-gp120-K500A (HIV-1 BaL); assay: capture ELISA
T8 construct: domain: gp120

BaL-gp120-S158A = target: T9, BaL-gp120-S158A (HIV-1 BaL); assay: capture ELISA
T9 construct: domain: gp120

BaL-gp120-E47AE91A = target: T10, BaL-gp120-E47AE91A (HIV-1 BaL); assay: capture ELISA
T10 construct: domain: gp120

BaL-gp120-V68A = target: T11, BaL-gp120-V68A (HIV-1 BaL); assay: capture ELISA
T11 construct: domain: gp120

BaL-gp120-L494A = target: T12, BaL-gp120-L494A (HIV-1 BaL); assay: capture ELISA
T12 construct: domain: gp120

BaL-gp120-D57A = target: T13, BaL-gp120-D57A (HIV-1 BaL); assay: capture ELISA
T13 construct: domain: gp120

BaL-gp120-E31A = target: T14, BaL-gp120-E31A (HIV-1 BaL); assay: capture ELISA
T14 construct: domain: gp120

BaL-gp120-R476AR480A = target: T15, BaL-gp120-R476AR480A (HIV-1 BaL); assay: capture ELISA
T15 construct: domain: gp120

BaL-gp120-T303A = target: T16, BaL-gp120-T303A (HIV-1 BaL); assay: capture ELISA
T16 construct: domain: gp120; glycan mutant, V3 region

BaL-gp120-S200A = target: T17, BaL-gp120-S200A (HIV-1 BaL); assay: capture ELISA
T17 construct: domain: gp120; also called 5200A

BaL-gp120-K46A = target: T18, BaL-gp120-K46A (HIV-1 BaL); assay: capture ELISA
T18 construct: domain: gp120

BaL-gp120-R58AK59A = target: T19, BaL-gp120-R58AK59A (HIV-1 BaL); assay: capture ELISA
T19 construct: domain: gp120

BaL-gp120-V75A = target: T20, BaL-gp120-V75A (HIV-1 BaL); assay: capture ELISA
T20 construct: domain: gp120

BaL-gp120-D78A = target: T21, BaL-gp120-D78A (HIV-1 BaL); assay: capture ELISA
T21 construct: domain: gp120

BaL-gp120-K33A = target: T22, BaL-gp120-K33A (HIV-1 BaL); assay: capture ELISA
T22 construct: domain: gp120

BaL-gp120-P76A = target: T23, BaL-gp120-P76A (HIV-1 BaL); assay: capture ELISA
T23 construct: domain: gp120

BaL-gp120-D62A = target: T24, BaL-gp120-D62A (HIV-1 BaL); assay: capture ELISA
T24 construct: domain: gp120

BaL-gp120-W45A = target: T25, BaL-gp120-W45A (HIV-1 BaL); assay: capture ELISA
T25 construct: domain: gp120

BaL-gp120-E492A = target: T26, BaL-gp120-E492A (HIV-1 BaL); assay: capture ELISA
T26 construct: domain: gp120

B1: N60-B1.1 (antibody, V domains shown)
VH: QLQLQESGPGLVKPSGTLSLTCSVSGGSMNGRNIYWAWIRQTPGKGLEWIGSVDVSDEDAGRTFYKWPIKSRASISADTSKNQFSLKLSSVTVADTGVYYCARETLYYVGNGYYYPLDVFYYNYYMDVWGKGTTVSVSS
VL: not shown
notes: also called bnAb N60-B1.1
[1]
  IC50 Titer (ug/ml), neutralization: 0.18 µg/mL
[2]
  IC50 Titer (ug/ml), neutralization: 0.37 µg/mL
[3]
  IC50 Titer (ug/ml), neutralization: 0.07 µg/mL
[4]
  IC50 Titer (ug/ml), neutralization: 0.019 µg/mL
[5]
  IC50 Titer (ug/ml), neutralization: 0.019 µg/mL
[6]
  IC50 Titer (ug/ml), neutralization: 0.08 µg/mL
[7]
  IC50 Titer (ug/ml), neutralization: 0.019 µg/mL
[8]
  IC50 Titer (ug/ml), neutralization: 0.019 µg/mL
[9]
  IC50 Titer (ug/ml), neutralization: 7.08 µg/mL
[10]
  IC50 Titer (ug/ml), neutralization: 0.3 µg/mL
[11]
  IC50 Titer (ug/ml), neutralization: 0.14 µg/mL
[12]
  IC50 Titer (ug/ml), neutralization: 0.019 µg/mL
[13]
  IC50 Titer (ug/ml), neutralization: 0.019 µg/mL
[14]
  IC50 Titer (ug/ml), neutralization: 1.53 µg/mL
gp120-VRC01-ScFV
  Fold of Ab needed for ELISA binding OD equal to half max on gp120: 0.03 fold
gp120-JR4-ScFV
  Fold of Ab needed for ELISA binding OD equal to half max on gp120: 0.04 fold
gp120-JR48.1-ScFV
  Fold of Ab needed for ELISA binding OD equal to half max on gp120: 0.14 fold
FLSC R/T
  Fold of Ab needed for ELISA binding OD equal to half max on gp120: 16.4 fold
BaL-gp120
  Fold of Ab needed for ELISA binding OD equal to half max on gp120: 1 fold
gp120-b12-ScFV
  Fold of Ab needed for ELISA binding OD equal to half max on gp120: 0.01 fold
BaL-gp120-D57AD78A
  % Binding: 103%
BaL-gp120-G495A
  % Binding: 106%
BaL-gp120-W35A
  % Binding: 132%
BaL-gp120-E106AD107A
  % Binding: 36%
BaL-gp120-V496A
  % Binding: 107%
BaL-gp120-K500A
  % Binding: 94%
BaL-gp120-S158A
  % Binding: 3%
BaL-gp120-E47AE91A
  % Binding: 73%
BaL-gp120-V68A
  % Binding: 68%
BaL-gp120-L494A
  % Binding: 99%
BaL-gp120-D57A
  % Binding: 98%
BaL-gp120-E31A
  % Binding: 103%
BaL-gp120-R476AR480A
  % Binding: 5%
BaL-gp120-T303A
  % Binding: 2%
BaL-gp120-S200A
  % Binding: 22%
BaL-gp120-K46A
  % Binding: 50%
BaL-gp120-R58AK59A
  % Binding: 92%
BaL-gp120-V75A
  % Binding: 104%
BaL-gp120-D78A
  % Binding: 108%
BaL-gp120-K33A
  % Binding: 76%
BaL-gp120-P76A
  % Binding: 102%
BaL-gp120-D62A
  % Binding: 80%
BaL-gp120-W45A
  % Binding: 84%
BaL-gp120-E492A
  % Binding: 113%
